Assay results as given in US20060229272A1 (published 2006).
No end group written: not given here.

Target: T1, HGPRBMY11 polypeptide (human G-protein coupled receptor, SEQ ID NO:2) (human, UniProt Q9NS75 17-346)
T1 construct: 330 amino acids; also called GPCR74; GPCR 81
T1 sequence: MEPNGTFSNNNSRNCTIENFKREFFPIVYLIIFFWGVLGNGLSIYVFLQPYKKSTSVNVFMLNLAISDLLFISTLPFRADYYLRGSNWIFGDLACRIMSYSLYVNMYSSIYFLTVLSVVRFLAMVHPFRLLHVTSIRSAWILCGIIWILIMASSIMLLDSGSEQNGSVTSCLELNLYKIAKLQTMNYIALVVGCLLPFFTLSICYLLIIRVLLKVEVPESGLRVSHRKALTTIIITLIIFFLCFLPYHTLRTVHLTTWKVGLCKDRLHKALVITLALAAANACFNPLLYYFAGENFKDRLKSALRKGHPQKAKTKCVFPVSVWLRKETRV
Test: phage display panning of M13KE peptide libraries on CHO-K1 cells transfected with HGPRBMY11, after preadsorption on integrin and parental cells; bound phage eluted and sequenced
Protocol: On the day of panning, growth medium was discarded and cells were washed with 10 ml PBS by allowing the buffer to flow over the cells. The PBS was removed and 10 ml Tris-EDTA detaching buffer (Gibco Cat. # 13150-016; no trypsin) was added for 2 min. Plates were tapped and/or pipetted up and down to detach cells. This was done quickly to minimize the exposure of the cells to this reagent. Cells were pelleted by centrifugation at 3 K, and then washed with 20 ml PBS. Cells were resuspended cells in PBS with 2% milk blocking agent plus protease inhibitor (EDTA-free; Roche Cat. # 1 873 580). For each library, cell suspensions of ˜500 ul were used. Cells were blocked for 30-60 min with gentle rocking at room temperature. The integrin-coated wells were washed 3× in PBST, then blocked with 2% BSA in PBS for 30 min or more. To preadsorb against integrin, input phage was added to the integrin-coated wells, and incubated for 30 min or more.
At this stage, the blocked parental cells were divided into the required number of aliquots (500 ul aliquot/library). The phage supernatants were added from the integrin-preadsorption step. Preadsorption against the parental cells was carried out for 30 min or more with gentle rocking. […]
Standard procedures were used. […] Colonies were grown in liquid medium and analyzed by standard sequencing procedures.

B1: THGFGHRVWSVPLRS (SEQ ID NO:96) (peptide)
peptide: THGFGHRVWSVPLRS
notes: In the assay it stood fused to the phage coat protein; also called Peptide Modulator of HGPRBMY11
  binding result: binds

B2: LFASSDWSSFPVLVF (SEQ ID NO:81) (peptide)
peptide: LFASSDWSSFPVLVF
modifications: also: displayed fused to phage coat protein, not free peptide
notes: In the assay it stood fused to the phage coat protein, not as a free peptide; The synthesis of free N-acetyl peptide amides is described only as a method; also called Peptide Modulator of HGPRBMY11
  binding result: binds
